In assay [1] the target is recombinant human MCL-1ΔNΔC (amino acids 172-320) (human) (UniProt Q07820). Description: FPA, FITC-SAHB against MCL-1ΔNΔC.
Assay [2] has the same target. The assay can be described thus: fluorescence polarization (FPA), FITC-SAHB, dilution series of MCL-1ΔNΔC [top panel]. On the technique in general: Polarisation of emitted light reports the rotation of a fluorescent probe.
Assay [3] addresses recombinant BCL-XLΔC (UniProt Q07817). The assay can be described thus: fluorescence polarization (FPA), FITC-SAHB with recombinant anti-apoptotic protein [lower table].
In assay [4] the target is recombinant BCL-wΔC (UniProt Q92843). The description is as above.
recombinant BCL-wΔC, sequence (Q92843 1-164, stated change not applied): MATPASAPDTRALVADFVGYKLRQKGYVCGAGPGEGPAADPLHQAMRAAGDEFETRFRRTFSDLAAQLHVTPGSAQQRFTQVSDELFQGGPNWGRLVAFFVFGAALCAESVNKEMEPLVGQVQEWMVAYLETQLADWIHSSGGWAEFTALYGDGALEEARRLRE
The target in assay [5] is recombinant BFL-1/A1ΔC (UniProt Q16548). Described as above.
recombinant BFL-1/A1ΔC, sequence (Q16548 1-153, stated change not applied): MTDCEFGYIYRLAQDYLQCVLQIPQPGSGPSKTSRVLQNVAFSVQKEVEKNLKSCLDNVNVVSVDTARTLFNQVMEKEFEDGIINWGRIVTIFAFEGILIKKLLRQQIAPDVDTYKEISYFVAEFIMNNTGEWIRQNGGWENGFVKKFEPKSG
The target of assay [6] is recombinant human MCL-1ΔNΔC (amino acids 172-320) (human) (UniProt Q07820). The assay is described as above.
Assay [7] shares this target. Description: fluorescence polarization (FPA), FITC-NOXA SAHBB, dilution series of the protein [left graph].
For assay [8], the target named is recombinant BCL-XLΔC (UniProt Q07817). The assay can be described thus: fluorescence polarization (FPA), FITC-SAHB with recombinant anti-apoptotic protein [upper table].
recombinant BCL-XLΔC, sequence (Q07817 1-212, stated change not applied): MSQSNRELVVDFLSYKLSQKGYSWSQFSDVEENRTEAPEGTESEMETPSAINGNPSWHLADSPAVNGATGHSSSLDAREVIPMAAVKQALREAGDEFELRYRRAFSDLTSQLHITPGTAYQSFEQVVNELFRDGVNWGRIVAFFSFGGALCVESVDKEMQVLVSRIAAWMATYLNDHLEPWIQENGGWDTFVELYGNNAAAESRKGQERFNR
Assay [9] addresses recombinant BCL-wΔC (UniProt Q92843). Described as above.
Assay [10] addresses recombinant BFL-1/A1ΔC (UniProt Q16548). Described as above.
Assay [11] concerns the target recombinant human MCL-1ΔNΔC (amino acids 172-320) (human) (UniProt Q07820). The description is as above.
The target in assay [12] is recombinant BFL-1/A1ΔC (UniProt Q16548). Description: fluorescence polarization (FPA), FITC-SAHB with recombinant protein; axis Concentration [log(pM)] [left panel].
Assay [13] concerns the target T1, recombinant human MCL-1ΔNΔC (amino acids 172-320) (human, UniProt Q07820 172-320).
T1 construct: also called rMCL-1; MCL-1NC
The assay can be described thus: FPA, FITC-SAHB against MCL-1ΔNΔC. How it is done: (§1) For direct binding experiments, dissociation constants (KD) were calculated by nonlinear regression analysis of dose-response curves using Prism software (Graphpad). For competition experiments, Ki values were determined by nonlinear regression analysis of dose-response curves using a one-site competition model.
The native alpha-helical structure of BH3 domains was reinforced by incorporating non-natural amino acids containing olefin tethers at the (i, i+4) positions of the non-interacting face, followed by ruthenium catalyzed olefin metathesis to yield a panel of stapled BH3 domains (FIG. 7).

Assay [14] has as its target T1, recombinant human MCL-1ΔNΔC (amino …). The assay can be described thus: fluorescence polarization (FPA), FITC-SAHB, dilution series of MCL-1ΔNΔC [middle panel]. How it is done: as §1
(§2) To measure the binding activity of SAHBs for MCL-1, fluorescence polarization binding assays were performed (FIG. 8). To generate a stable MCL-1 protein suitable for such binding studies (i.e., the published full-length and carboxy-terminus deleted forms of recombinant MCL-1 degrade rapidly, rendering it difficult to maintain a homogenous solution of pure MCL-1 protein), a recombinant form of MCL-1 (rMCL-1) was produced that lacked its amino- and carboxy-terminus, “MCL-1ΔNΔC”, but retained the critical BCL-2 homology domains and adjoining protein sequences that give rise to the BH3-binding cleft (SEQ ID NO: 72). The pGEX-4T vector was used to produce the GST-fusion protein of MCL-1ΔNΔC and purification was achieved by glutathione sepharose chromatography, affinity tag cleavage with thrombin at room temperature overnight, followed by size exclusion chromatography. Serial dilutions of MCL-1ΔNΔC in 50 mM Tris pH 8, 150 mM NaCl were incubated with a fixed concentration of FITC-derivatized SAHB (10-50 nM) until equilibrium was reached. Fluorescence polarization was measured on a BMG POLARstar Optima or Spectramax and dissociation constants determined by nonlinear regression analysis using Prism software 4.0 (Graphpad) (FIG. 8).

Assay [15] shares this target. Description: fluorescence polarization (FPA), FITC-SAHB with recombinant anti-apoptotic protein [upper table]. On the procedure: as §1
(§3) To measure the binding activity of SAHBs for MCL-1, fluorescence polarization binding assays were performed (FIG. 8). To generate a stable MCL-1 protein suitable for such binding studies (i.e., the published full-length and carboxy-terminus deleted forms of recombinant MCL-1 degrade rapidly, rendering it difficult to maintain a homogenous solution of pure MCL-1 protein), a recombinant form of MCL-1 (rMCL-1) was produced that lacked its amino- and carboxy-terminus, “MCL-1ΔNΔC”, but retained the critical BCL-2 homology domains and adjoining protein sequences that give rise to the BH3-binding cleft (SEQ ID NO: 72). The pGEX-4T vector was used to produce the GST-fusion protein of MCL-1ΔNΔC and purification was achieved by glutathione sepharose chromatography, affinity tag cleavage with thrombin at room temperature overnight, followed by size exclusion chromatography. […] Fluorescence polarization was measured on a BMG POLARstar Optima or Spectramax and dissociation constants determined by nonlinear regression analysis using Prism software 4.0 (Graphpad) (FIG. 8).

Assay [16] shares this target. The assay can be described thus: fluorescence polarization (FPA), FITC-SAHB with recombinant protein; axis Concentration [log(pM)] [right panel].
For assay [17] the target is unchanged. The assay can be described thus: competition FPA: dilution series of acetylated MCL-1 SAHB against FITC-BAK SAHB on MCL-1ΔNΔC. On the procedure: (§4) Briefly, FITC-SAHB (50 nM) was added to serial dilutions of FPLC-purified recombinant protein in binding buffer (50 mM Tris, 100 mM NaCl, pH 8.0). […] Multiwell plates were incubated in the dark at room temperature until equilibrium was reached and fluorescence polarization (mP units) was measured by microplate reader (SpectraMax, Molecular Devices). For direct binding experiments, dissociation constants (KD) were calculated by nonlinear regression analysis of dose-response curves using Prism software (Graphpad). For competition experiments, Ki values were determined by nonlinear regression analysis of dose-response curves using a one-site competition model.
(§5) FP (mP units) was measured at equilibrium by microplate reader (e.g., Spectramax) and Kᵢ values calculated by nonlinear regression analysis of dose-response curves using Prism software (Graphpad).

Assay [18] has the same target. Description: FPA. How it is done: as §1
The alanine scan was supplemented with glutamate mutagenesis of alanine and glycine residues.

Assay [19] has the same target. Description: competition FPA, FITC-BAK SAHB and MCL-1ΔNΔC with MCL-1 SAHBs as competitors. On the procedure:
as §4, §5

Assay [20] shares this target. The assay can be described thus: fluorescence polarization (FPA), FITC-SAHB with recombinant anti-apoptotic protein [lower table]. How it is done: as §1, §2
For assay [21] the target is unchanged. Description: fluorescence polarization (FPA), FITC-SAHB, dilution series of MCL-1ΔNΔC [top panel]. On the procedure: as §1, §3

By Kd is commonly meant a measure of binding affinity in units of concentration. What is called EC50 (read off the curve) is the concentration giving half of the maximal effect. By Ki is commonly meant the equilibrium dissociation constant of an inhibitor or competing ligand from its target. What is called IC50 is the concentration that gives 50% inhibition.

Bridges are numbered along the chain shown (N, C = ends). Where no end group is shown, it is not given here. [ ]: non-standard residue; d: D form. The star is where a group is joined. FITC = O=C1OC2(c3ccc(O)cc3Oc3cc(O)ccc32)c2ccc(NC(=S)*)cc21; S5 = C=CCCC[C@](C)(N)C(=O)O; Nle = CCCC[C@H](N)C(=O)O

T1 sequence (Q07820 172-320 limits assumed, stated change not applied): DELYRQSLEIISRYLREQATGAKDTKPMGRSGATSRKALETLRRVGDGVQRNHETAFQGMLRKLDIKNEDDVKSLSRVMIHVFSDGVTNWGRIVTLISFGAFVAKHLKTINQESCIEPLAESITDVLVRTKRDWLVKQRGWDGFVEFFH
recombinant human MCL-1ΔNΔC (amino acids 172-320) (human), sequence (Q07820 172-320 limits assumed, stated change not applied): as above

In the case of “NOXA SAHBA (stapled NOXA BH3 helix) (from UniProt Q13794) (peptide)”, the Kd in assay [1] is less than 50 nM; in assay [2], 22 nM; with recombinant BCL-XLΔC [3], greater than 1000 nM; in the assay with recombinant BCL-wΔC [4] it was greater than 1000 nM; in the assay with recombinant BFL-1/A1ΔC [5], 416 nM; in assay [6], 22 nM.
Regarding “NOXA SAHBB (from UniProt Q13794 19-43) (peptide)”, the Kd in [7] is 110 nM; in the assay with recombinant BCL-XLΔC [8] it was greater than 1000 nM; with recombinant BCL-wΔC [9], greater than 1000 nM; with recombinant BFL-1/A1ΔC [10], greater than 1000 nM; in assay [11] it was 109 nM.
Take BIM SAHB (BIM SAHBA) (peptide): the Kd stood at 2 nM with recombinant BCL-wΔC [4] and 18 nM in the assay with recombinant BFL-1/A1ΔC [5]. Moreover, the half-maximal effective concentration (EC50 (read off the curve)) with recombinant BFL-1/A1ΔC [12] was 50 nM.
On to {FITC}-RLAEVSAVLL[S5]LGD[S5]LE[Nle]IR (staple 11-15) [BOK SAHB], for which the Kd was less than 50 nM in assay [13]; 316 nM with recombinant BCL-XLΔC [8]; 416 nM with recombinant BCL-wΔC [9]; greater than 1000 nM in the assay with recombinant BFL-1/A1ΔC [10]; 115 nM in [14]; 115 nM in assay [15].
In the case of {FITC}-IWI[S5]QEL[S5]RFGDKFNAYYAR (staple 4-8) [BIM SAHBD with Ile65 to Phe and Glu68 to Lys (MCL-1-specificity tailored BIM SAHB)], in [16], the “EC50 (read off the curve)” value was roughly 10 nM.

B1: MCL-1 SAHBA (stapled MCL-1 BH3 helix, parental) (peptide)
peptide: KALETLR[S5]VGD[S5]VQRNHETAF
modifications: staple 8-12; also: N-terminal FITC or acetyl depending on assay
notes: domain: BH3; also called FITC-MCL-1 SAHBA
In the case of B1, the Kd in assay [13] is less than 50 nM. In addition, the Ki in [17] came to 3100 nM.

B2: MCL-1 SAHBA V220F (peptide, UniProt Q07820 208-228, looked up)
peptide: {FITC}-KALETLR[S5]VGD[S5]FQRNHETAF
modifications: staple 8-12
notes: domain: BH3; also called V220F point mutation in MCL-1 SAHB
Turning to B2, the Kd in [18] was 191 nM.

B3: BAK SAHB (peptide)
peptide: {FITC}-QVGRQLA[S5]IGD[S5]INRRYD
modifications: staple 8-12
notes: also called FITC-BAK SAHB; BAK BH3 helix
As to B3, the Kd in [13] is less than 50 nM; with recombinant BCL-XLΔC [3] it was 15 nM; with recombinant BCL-wΔC [4], 17 nM; in the assay with recombinant BFL-1/A1ΔC [5] it was 92 nM; in [14], 7 nM; in assay [20] it was 7 nM. Besides, in [19], the IC50 worked out at 270 nM.
{FITC}-QWAREIGAQLR[S5][Nle]AD[S5]LNAQY (staple 12-16, domain: BH3) [PUMA SAHB]: the Kd is less than 50 nM in [13]; 14 nM in assay [21]; 9 nM with recombinant BCL-XLΔC [3]; 18 nM in the assay with recombinant BCL-wΔC [4]; 34 nM with recombinant BFL-1/A1ΔC [5]; 14 nM in [20].
Turning to {FITC}-ASTKKLSESLK[S5]IGD[S5]LDSN (staple 12-16, domain: BH3) [BAX SAHB], the Kd was less than 50 nM in [13]; 15 nM with recombinant BCL-XLΔC [3]; 24 nM with recombinant BCL-wΔC [4]; 28 nM in the assay with recombinant BFL-1/A1ΔC [5]; 101 nM in [14]; 101 nM in [20].
Turning to {FITC}-DIIRNIARHLA[S5]VGD[S5][Nle]DRSIRR (staple 12-16, domain: BH3) [BID SAHB], the Kd in assay [13] is less than 50 nM; in assay [21], 50 nM; in the assay with recombinant BCL-XLΔC [3] it was 28 nM; with recombinant BCL-wΔC [4], 54 nM; with recombinant BFL-1/A1ΔC [5] it was 95 nM; in assay [20] it was 50 nM.
